According to patent US20220251167A1 (published 2022):

Biological target: T1, DNAJB1-PRKACA fusion protein peptide on HLA-A*68:02 (human)
T1 peptide: EIFDRYGEEV
Assay: multimer staining
Description: Jurkat cells were engineered to express the FLC-P8R-4 TCR.

binding result: recognises
B1: P9R-4 (TCR)
alpha TRAV16*01 TRAJ4*01 CDR3: CALDMFSGGYNKLIF
beta TRBV15*01 TRBJ2-7*01 CDR3: CATSRVKTSGGYEQYF
